Test [1] has as its target human OX40 receptor (CD134), full length, on the cell surface (human) (UniProt P43489). Briefly: cell-based or functional assay.
Test [2] addresses T1, murine OX40 (form not stated) (mouse, UniProt P47741 20-211, limits assumed).
T1 sequence (looked up): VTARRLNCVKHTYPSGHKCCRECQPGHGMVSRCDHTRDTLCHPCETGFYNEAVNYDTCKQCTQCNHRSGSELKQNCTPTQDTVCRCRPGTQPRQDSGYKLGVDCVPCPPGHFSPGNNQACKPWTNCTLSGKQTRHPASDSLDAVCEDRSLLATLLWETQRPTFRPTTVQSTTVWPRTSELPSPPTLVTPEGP
In words: not described (observation cited in Example 8).

Test [3] addresses T2, human OX40 (form used in the assay not stated) (human, UniProt P43489 29-214, limits assumed).
T2 sequence (looked up): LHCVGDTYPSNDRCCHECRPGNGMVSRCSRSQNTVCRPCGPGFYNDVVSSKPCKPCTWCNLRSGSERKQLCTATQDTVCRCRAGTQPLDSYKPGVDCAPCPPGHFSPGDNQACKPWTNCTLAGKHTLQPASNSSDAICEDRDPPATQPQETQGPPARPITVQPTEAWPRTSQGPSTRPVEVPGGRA
In words: OX40 binding titration with OD readout (assay format and form of OX40 not described); x axis 'Log concentration, µg/ml Fab'.

In test [4] the target is T2, human OX40 (form used in the assay not …). Briefly: Biacore, format not described. Background: In SPR one partner is held on a chip, and binding of the other changes the refractive index at the surface.

For “OX40 ligand (OX40L) on transfected mouse L fibroblasts”, in test [1], the CMP Mean (n: 3), proliferation, Th17 cells + OX40L L-cells was found to be 66000 CPM; the IFN-γ Conc (pg/ml), Th1 cells + OX40L L-cells is 33000 pg/mL; the IL2 (pg/ml), OX40-Hut-78 + OX40L-L-cells, no antibody was 138 pg/mL; the IL13 (pg/ml), OX40-Hut-78 + OX40L-L-cells, no antibody came out at 620 pg/mL. In test [1], the IL-17 Conc (pg/ml), TH-17, CD4+ cells/OX40L L-cells is 2260 pg/mL; the Survivin expression (%), Th17 cells + OX40L L-cells turned out to be 49%; the TH17 Survival (%), Th17 + OX40L-L-cells turned out to be 39.2%; the Th1 Survival (%), naïve CD4+ T-cells + OX40L L-cells worked out at 65.9%. Besides, in test [1], the Th17 proliferation, fold against culture without OX40L costimulation came to 4 fold and the Th-17 Survival (%), Th17 cells + OX40L L-cells turned out to be 84.3%.

B1: humanized anti-OX40 antibody A10(TH)hu336F (antibody, V domains shown)
VH: QVQLVQSGAEVKKPGASVKVSCKASGYTFTSYWMHWVRQAPGQGLEWMGEIHPKSGNSNYNEKFKGRVTMTRDTSTSTVYMELSSLRSEDTAVYYCARGPEYSNFWFAYWGQGTLVTVSS
VL: DIVLTQSPTSLAVSLGQRATISCKASQTVDYDGDSYMHWYQQKPGQPPKLLIYAASNLESGVPDRFSGSGSGTDFTLTISSLQAEDVAVYYCHQSNEDPWTFGQGTKVEIK
notes: also called humanized clone A10(TH)hu336F; 'humanized' A10 molecule
Usually EC50 (read off the curve) stands for the concentration giving half of the maximal effect. Read a high EC50 (read off the curve) as a less potent agent. B1: the binding result in test [2] is recorded as “no binding”. The “EC50 (read off the curve)” value in test [3] is around 9 ng/mL.

B2: humanized A10 whole antibody F (A10 LC (TH) hu 336 / A10 humanized) (antibody, V domains shown)
VH: QVQLVQSGAEVKKPGASVKVSCKASGYTFTSYWMHWVRQAPGQGLEWMGEIHPKSGNSNYNEKFKGRVTMTRDTSTSTVYMELSSLRSEDTAVYYCARGPEYSNFWFAYWGQGTLVTVSS
VL: DIVLTQSPTSLAVSLGQRATISCKASQTVDYDGDSYMHWYQQKPGQPPKLLIYAASNLESGVPDRFSGSGSGTDFTLTISSLQAEDVAVYYCHQSNEDPWTFGQGTKVEIK
notes: also called A10-F; humanized variant A10-F
Usually Kd stands for the concentration at which binding is half-saturated. Read a high Kd as a looser complex. As usually defined, the koff is the rate constant with which the complex falls apart. Low readings indicate a long-lived complex, high ones a short-lived complex. As usually defined, the kon is the rate constant with which the complex forms. Low readings indicate slow association, high ones fast association. In test [4], B2 came in with a Kd of 1.12 nM, a dissociation rate constant (koff) of 0.000158 s⁻¹ and an on-rate constant (kon) of 141000 M⁻¹ s⁻¹.

B3: humanized A10 whole antibody B (A10 LC (SN) / A10 L70) (antibody, V domains shown)
VH: QVQLVQSGAEVKKPGASVKVSCKASGYTFTSYWMHWVRQAPGQGLEWMGEIHPKSGNSNYNEKFKGRVTLTRDTSTSTVYMELSSLRSEDTAVYYCARGPEYSNFWFAYWGQGTLVTVSS
VL: DIVMTQSPDSLAVSLGERATINCKASQSVDYDGDSYMNWYQQKPGQPPKLLIYAASNLESGVPDRFSGSGSGTDFTLTISSLQAEDVAVYYCHQSNEDPWTFGQGTKVEIK
In test [4], B3 came in with a dissociation constant Kd of 0.94 nM, an off-rate constant (koff) of 0.000156 s⁻¹ and an on-rate (kon) of 170000 M⁻¹ s⁻¹.

B4: humanized A10 whole antibody E (A10 LC (SN) / A10 humanized) (antibody, V domains shown)
VH: QVQLVQSGAEVKKPGASVKVSCKASGYTFTSYWMHWVRQAPGQGLEWMGEIHPKSGNSNYNEKFKGRVTMTRDTSTSTVYMELSSLRSEDTAVYYCARGPEYSNFWFAYWGQGTLVTVSS
VL: DIVMTQSPDSLAVSLGERATINCKASQSVDYDGDSYMNWYQQKPGQPPKLLIYAASNLESGVPDRFSGSGSGTDFTLTISSLQAEDVAVYYCHQSNEDPWTFGQGTKVEIK
In test [4], B4 registered a Kd of 1.25 nM, a koff of 0.000191 s⁻¹ and an on-rate (kon) of 151000 M⁻¹ s⁻¹.

B5: humanized A10 whole antibody D (A10 LC (SH) / A10 humanized) (antibody, V domains shown)
VH: QVQLVQSGAEVKKPGASVKVSCKASGYTFTSYWMHWVRQAPGQGLEWMGEIHPKSGNSNYNEKFKGRVTMTRDTSTSTVYMELSSLRSEDTAVYYCARGPEYSNFWFAYWGQGTLVTVSS
VL: DIVMTQSPDSLAVSLGERATINCKASQSVDYDGDSYMHWYQQKPGQPPKLLIYAASNLESGVPDRFSGSGSGTDFTLTISSLQAEDVAVYYCHQSNEDPWTFGQGTKVEIK
notes: also called A10-D; A10 D
In test [4], B5 registered a dissociation constant Kd of 1.21 nM, a dissociation rate constant (koff) of 0.00017 s⁻¹ and a kon of 140000 M⁻¹ s⁻¹.

B6: humanized A10 whole antibody A (A10 LC (SH) / A10 L70) (antibody, V domains shown)
VH: QVQLVQSGAEVKKPGASVKVSCKASGYTFTSYWMHWVRQAPGQGLEWMGEIHPKSGNSNYNEKFKGRVTLTRDTSTSTVYMELSSLRSEDTAVYYCARGPEYSNFWFAYWGQGTLVTVSS
VL: DIVMTQSPDSLAVSLGERATINCKASQSVDYDGDSYMHWYQQKPGQPPKLLIYAASNLESGVPDRFSGSGSGTDFTLTISSLQAEDVAVYYCHQSNEDPWTFGQGTKVEIK
In test [4], B6 gave a dissociation constant (Kd) of 1.38 nM, a dissociation rate constant (koff) of 0.000179 s⁻¹ and a kon of 131000 M⁻¹ s⁻¹.

B7: humanized A10 whole antibody C (A10 LC (TH) hu 336 / A10 L70) (antibody, V domains shown)
VH: QVQLVQSGAEVKKPGASVKVSCKASGYTFTSYWMHWVRQAPGQGLEWMGEIHPKSGNSNYNEKFKGRVTLTRDTSTSTVYMELSSLRSEDTAVYYCARGPEYSNFWFAYWGQGTLVTVSS
VL: DIVMTQSPDSLAVSLGERATINCKASQTVDYDGDSYMHWYQQKPGQPPKLLIYAASNLESGVPDRFSGSGSGTDFTLTISSLQAEDVAVYYCHQSNEDPWTFGQGTKVEIK
In test [4], B7 yielded a Kd of 1.44 nM, a koff of 0.000151 s⁻¹ and a kon of 116000 M⁻¹ s⁻¹.

Source of the values: patent US20100136030A1 (published 2010).
